Data from the supplement of paper PMC10567573.
± gives the standard deviation.

Experiment: protein stability index of a GFP-peptide fusion (GPS, HEK-293T) (PSI 1-6); higher = more stable
[1] = treatment: DMSO, c terminus: a fixed tail appended
[2] = treatment: MLN4924 1 uM, 8 h, c terminus: a fixed tail appended
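Note: 24-mer peptide tiles fused after GFP, lentivirally expressed, FACS-sorted into six equal bins by GFP/DsRed ratio, decoded by Illumina sequencing, PSI is the read-weighted mean bin number.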

Sequence	protein stability index [1]	protein stability index [2]	protein stability index (treatment: DMSO, c terminus: native)	protein stability index (treatment: MLN4924 1 uM, 8 h, c terminus: native)
RSNVDFLETPELTSTMLVPASWWI [NECAB1]	2.21 ± 0.43	2.23 ± 0.48		
WCLRVNPKGLDDESKDYLSLYLLL [SPOPL]	2.96 ± 0.41	3.08 ± 0.69		
GVIAAIVQLHNGTKYKKFPHWLDK [STEAP1]	2.6 ± 0.31	2.39 ± 0.63		
IGLRQHHCRKCGKAVCGKCSSKRS [WDFY2]	4.08 ± 0.17	4.15 ± 0.26		
LKVKCLNNLAASQLKLDHYRAALR [FKBP8]	2.28 ± 0.31	2.19 ± 0.47		
YLDKAPPPGLPAETIKDLMRQFLR [CDK4]	4.45 ± 0.2	4.23 ± 0.39		
AVPVSTSKPSSDLLDLQPDFSSGG [SNAP91]	4.76 ± 0.17	4.84 ± 0.14		
YRLLKCAPRGKNGFTPLHMAVDKD [FEM1A]	2.84 ± 0.22	2.96 ± 0.14		
ECLPENLGGYVKIDLATWNFQFLP [PTPN9]	2.36 ± 0.33	2.21 ± 0.38		
ADIFRIYAPEAPYTSPDKLKDIFM [PDS5B]	2.06 ± 0.11	2.1 ± 0.21		
IDIIPNPQERTLTLVDTGIGMTKA [HSP90AB1]	3.55 ± 0.19	3.43 ± 0.51		
TLQELLARDTVQVELIPEKKGLFL [SNX8]	2.47 ± 0.62	2.41 ± 0.43		
ERSLVLDRLASNVAKRKSSMPQKF [IKZF1]	3.6 ± 0.23	3.84 ± 0.29		
IDSGSPAEEAGLKNNDLVVAVNGE [PDZK1]	5.45 ± 0.48	5.58 ± 0.2		
IAQYALLGYFIRSWRTLAILVNLQ [SLC22A15]	3.07 ± 0.51	2.78 ± 0.21		
DLGEGKICFCCEEFQPAKCTDKEN [FAM189A2]	4.24 ± 0.34	4.07 ± 0.085		
LGRGLVGGQEEASQEAGLPAGAGP [SEPHS2]	5.23 ± 0.47	4.75 ± 0.65		
VTSIPSVSDSLTWREFHYIQSKLG [STEAP1]	2.66 ± 0.24	2.69 ± 0.18		
VLMAVSVHSERKLLPLVTLCDGNP [SCNN1D]	2.4 ± 0.38	2.32 ± 0.47		
PEQGVPKSGEGFIDFIGQVHKTKE [PTPRD]	4.6 ± 0.44	5.17 ± 0.5		
ERIQELEDLLAKEKDNSRRMLTDK [LMNB1]	4.85 ± 0.29	4.91 ± 0.34		
LEPPTMRKKRLLDRKVLLKSDSPT [GOLPH3L]	4.38 ± 0.21	4.54 ± 0.17		
GIEEVTYENCLQALADVEVKYIVE [NLN]	3.29 ± 0.37	3.34 ± 0.34		

Sequence	protein stability index [1]	protein stability index [2]	protein stability index (treatment: DMSO, c terminus: native)	protein stability index (treatment: MLN4924 1 uM, 8 h, c terminus: native)
PGCGSVPGSGSGPGPGSGPGSGPG [SPAG8]	4.96 ± 0.062	4.99 ± 0.25		
RYLFEEDNLLRSTQKLSHSTKPSG [MATN2]	3.82 ± 0.3	3.92 ± 0.3		
VVLGNIIKKKGWRRSSLVITTKIF [KCNAB2]	2.86 ± 0.34	2.74 ± 0.55		
RTPLMYCVLADRLDCADALLKAGA [INVS]	2.16 ± 0.35	2.08 ± 0.15		
CTVLRDARIRSHSWLESCIVGWRC [GMPPB]	2.42 ± 0.39	1.93 ± 0.43		
SCTPRMNRRMVGPDVIPLPHIYGA [FAM189A2]	2.23 ± 0.22	2.27 ± 0.2		
DRAPAEQVPRSPVIKISYSTPQGK [PWWP2B]	4.44 ± 0.29	4.52 ± 0.3		
NEIESRHRELLRLESRIRDVHELF [STX11]	3.54 ± 0.21	3.65 ± 0.22		
RVEVLTDAGGWVLIDRSGRHFGTI [KCTD13]	2.37 ± 0.46	2.38 ± 0.7		
QIEGLNEELAYLKKNHEEEMKEFS [KRT15]	5.25 ± 0.33	5.3 ± 0.19		
SFCHGSSLKRHLKTHTGEKPHRCH [ZNF449]	3.45 ± 0.27	3.61 ± 0.34		
ETVSPLPSSMDLLIQDSPDSSTSP [NANOGP8]	5.45 ± 0.37	5.45 ± 0.25		
EILLHPWFESVLEPGYIDSEIGTS [TRIB1]	2.44 ± 0.29	2.56 ± 0.43		
NISDADVHNAMDNYECNLYTFLYL [FEM1B]	2.25 ± 0.66	2.42 ± 0.45		
YSHLAYNNYRLGGNPSTNSRVTAS [SMARCE1]	3.3 ± 0.34	3.35 ± 0.18		
CDPSRIYKPQTRLKRKQPVRKRQ [DFFB]			3.96 ± 0.36	4.15 ± 0.13
TSVDHDRAPVVGVRVNVLLSRYLI [DLC1]		3.12 ± 1.8		
LIKTIETRNGEVVTESQKEQRSEL [PRPH]	4.91 ± 0.52	4.67 ± 0.53		
YGSCYTVDGVWTAQRPGITHGVGL [SCNN1D]	2.69 ± 0.5	2.2 ± 0.15		
PTFKSFEERVETTVTSLKTKVGGT [TPD52L1]	4.64 ± 0.25	4.65 ± 0.033		
TVDCEPSDLFRLQEYNIPGVIQSV [CDS2]	3.01 ± 0.29	3.16 ± 0.25		
PFFFTGAFPFNMQELVLKVRIQNP [ANKRD40]	2.27 ± 0.042	1.99 ± 0.61		
NLITTVTPEKKAEEERDEEEDKRR [EPB41L3]	5.61 ± 0.35	5.56 ± 0.2		

Sequence	protein stability index [1]	protein stability index [2]	protein stability index (treatment: DMSO, c terminus: native)	protein stability index (treatment: MLN4924 1 uM, 8 h, c terminus: native)
LTASTMEILLDFVYTETVHVTVEN [KLHL12]	2.9 ± 0.79	3.29 ± 1.4		
KCEQPFFWNIKQMWDTKTLGLRQH [WDFY1]	2.12 ± 0.17	2.38 ± 0.27		
DSKSGGSGSESDHTTRSSLRGPRE [DVL3]	5.31 ± 0.27	5.19 ± 0.22		
MLGKYNTPVSYRMAKTLVFSKVKT [ACSBG2]	2.46 ± 0.31	2.35 ± 0.23		
QMQDDEQKTRLLEDSVSRLEKEIE [PALM]	5.11 ± 0.15	4.97 ± 0.1		
RLLELMNQHDTEMKYYIVHLKRHF [DYRK1B]	2.35 ± 0.22	2.54 ± 0.48		
KPGLRRSPIKKVRKSLALDIVDED [MYBL2]	4.84 ± 0.5	4.92 ± 0.48		
LKPFFMKEVGSHFDDFVTNLIEKS [SOAT1]	2.48 ± 0.32	2.88 ± 0.13		
SGSLEILQLLLGCKARMERDGYGM [FEM1A]	2.92 ± 0.51	3.05 ± 0.6		
LSSAPSSRAEPIRTTVFQYPVGWP [ZMAT5]	2.86 ± 0.22	2.94 ± 0.19		
VQRSPWLMMRMGILGRGLQEYQLP [TCAP]	2.3 ± 0.17	2.21 ± 0.48		
MDVPGPVSRRAAAAAATVLLRTAR [SLC19A2]	3.29 ± 0.23	3.42 ± 0.089		
CTAKCGERSVVTRDIRCSEDEKLC [ADAMTSL2]	4.63 ± 0.38	4.61 ± 0.18		
NGTGDSNDFWRIEVVNRKFGNRIK [POMT2]	3.25 ± 0.26	3.46 ± 0.41		
VRFLEQQNAALRGELSQARGQEPA [PRPH]	4.57 ± 0.27	4.41 ± 0.18		
VEGRHLYVLEFSDHPGIHEPLEPE [CPN1]	3.04 ± 0.23	3.28 ± 0.33		
DRLRINRFAWPKVLKISYKRNNFY [EPB41L3]	1.81 ± 0.57	1.69 ± 0.4		
RQNDILQVVSQGWKYFKGNFYYFS [CD207]	2.3 ± 0.73	2.06 ± 0.58		
SWLDVQVSNTYVKQKTSAALSTMG [TPD52L3]	2.79 ± 0.27	2.47 ± 0.22		
TGMWWRHLVAGGGAGAVSRTCTAP [SLC25A25]	2.32 ± 0.25	2.48 ± 0.42		
FWNIKQMWDTKTLGLRQHHCRKCG [WDFY1]	2.64 ± 0.25	2.86 ± 0.49		
SRRSYDDQLRSGSPPKSPRTTVHD [DNAJC4]	4.89 ± 0.31	4.98 ± 0.23		
GCLENMPEADCIPKEQLSTSFQWV [PLK2]	3.57 ± 0.2	3.45 ± 0.36		

Sequence	protein stability index [1]	protein stability index [2]	protein stability index (treatment: DMSO, c terminus: native)	protein stability index (treatment: MLN4924 1 uM, 8 h, c terminus: native)
NSSGDFSQAHSTLKLANHQRPVSR [TRAF3IP2]	4.43 ± 0.32	4.63 ± 0.38		
SKAKKLVCNINKGCGYGCQLHHVV [FUT8]	2.71 ± 0.43	2.19 ± 0.4		
AWEKLLAAFPNLANLSRTQLLHLG [KLHDC10]	2.06 ± 0.27	2.1 ± 0.11		
IHLSAPCIYSEVMEALDLQPGLSF [PCMTD2]	2.23 ± 0.23	1.96 ± 0.41		
LGCALLAAHAVVLCALPVHVAVEH [SOAT2]	3.43 ± 0.35	3.09 ± 0.51		
ASSGGAGAAVGTGSSYPTTTISYL [JUNB]	2.8 ± 0.34	2.79 ± 0.39		
AVKDGLIVETLTVGCKGSKAGIEQ [ZMYND11]	3.57 ± 0.14	3.48 ± 0.22		
HSIIISLVEAGAHTDMTNKQNKTP [FEM1B]	2.46 ± 0.49	2.63 ± 0.32		
LIQNGGEIDCVDKDGNTPLHVAAR [ANKRD44]	4.32 ± 0.087	4.53 ± 0.16		
EFEEATGEAGWGAGEGRLGHKRKQ [FOXJ1]	5.26 ± 0.39	5.19 ± 0.5		
NSLAALDLSGIQTSDAAFLTQWKD [ZER1]	4.25 ± 0.2	4.29 ± 0.23		
SIGLRDYAGNLHESGVHGALLALD [PPFIA4]	3.48 ± 0.11	3.73 ± 0.45		
GGFGGGDGGLLSGNEKITMQNLND [KRT15]	4.76 ± 0.3	4.88 ± 0.27		
WEWSPAGLQSYQQALLRISLDKVQ [SERTAD3]	2.48 ± 0.58	2.49 ± 0.69		
PEHRAFGSPFGLEEPQWVPDKECR [ZFYVE21]	4.57 ± 0.15	4.62 ± 0.28		
DRTAIRSDTTHLVTLGGVLRQQLV [KLHL13]	2.61 ± 0.28	2.73 ± 0.22		
LIPQPLDSEEDEKMEEDIKEEEEK [PCMTD1]	5.66 ± 0.23	5.67 ± 0.22		
STSGQPYPTSDQEGDPGSKQPRKK [LCOR]	5.5 ± 0.13	5.42 ± 0.19		
MKRSKELITKNHSQEETSILRCWK [RNF180]	3.11 ± 0.24	3.19 ± 0.058		
RHQRIHTGERPYECNECGKAFSRS [ZSCAN9]	3.29 ± 0.24	3.82 ± 0.31		
